Assay results reported in PMC11299580, “Discovery of novel disease-causing mutation in SSBP1 and its correction using adenine base editor to improve mitochondrial function” (Molecular Therapy. Nucleic Acids, 2023).

Target: T1, SSBP1 Arg91Gln R91Q (Homo sapiens) (UniProt Q04837)
T1 sequence: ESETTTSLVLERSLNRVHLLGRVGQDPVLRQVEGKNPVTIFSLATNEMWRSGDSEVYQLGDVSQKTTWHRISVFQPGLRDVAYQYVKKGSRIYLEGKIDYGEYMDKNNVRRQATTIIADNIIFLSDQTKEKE
Assay: EMSA
Conditions: 50 mM Tris pH 7.5, 150 mM NaCl, 10% glycerol, 30 min at room temperature; 2% agarose gel in 1x TBE

“GGACTATTTATTCAATATATTTAAGAACTAATTCCAGCTGAGCGCCGG [EMSA ssDNA probe]” gave a Kd of 20.2 nM.
